Data from patent publication US20140072613A1 (published 2014).

Key:
Assay in all cases: cell-based or functional assay
[1] = target: T1, NEK2(h) (human, UniProt P51955 1-445)
T1 sequence (looked up): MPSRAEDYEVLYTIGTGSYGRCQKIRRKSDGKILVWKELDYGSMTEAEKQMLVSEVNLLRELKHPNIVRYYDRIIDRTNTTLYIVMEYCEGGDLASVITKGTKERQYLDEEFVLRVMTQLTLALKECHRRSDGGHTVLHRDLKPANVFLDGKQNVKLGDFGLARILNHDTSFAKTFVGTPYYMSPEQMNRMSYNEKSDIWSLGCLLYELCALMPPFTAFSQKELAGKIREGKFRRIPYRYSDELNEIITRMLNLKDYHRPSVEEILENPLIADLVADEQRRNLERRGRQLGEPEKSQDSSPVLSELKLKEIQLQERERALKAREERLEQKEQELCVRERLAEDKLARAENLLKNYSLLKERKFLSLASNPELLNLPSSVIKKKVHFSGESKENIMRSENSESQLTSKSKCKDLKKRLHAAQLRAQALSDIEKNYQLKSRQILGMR

[2] = target: Plk3(h) (human, UniProt Q9H4B4 58-340, limits assumed)
Sequence of Plk3(h) (Q9H4B4 58-340 limits assumed): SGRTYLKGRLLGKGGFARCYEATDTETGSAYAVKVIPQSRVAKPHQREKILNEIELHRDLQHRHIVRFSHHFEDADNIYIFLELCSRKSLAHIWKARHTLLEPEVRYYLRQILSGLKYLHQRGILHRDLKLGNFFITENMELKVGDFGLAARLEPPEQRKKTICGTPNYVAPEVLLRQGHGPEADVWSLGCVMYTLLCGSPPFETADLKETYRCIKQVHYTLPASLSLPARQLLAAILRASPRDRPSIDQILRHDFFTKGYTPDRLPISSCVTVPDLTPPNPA

[3] = target: CDK5/p25(h) (human, UniProt Q00535 1-292; Q15078 99-307)
[4] = target: T2, Flt3(D835Y)(h) (human, UniProt P36888 564-993, limits assumed)
T2 sequence (looked up): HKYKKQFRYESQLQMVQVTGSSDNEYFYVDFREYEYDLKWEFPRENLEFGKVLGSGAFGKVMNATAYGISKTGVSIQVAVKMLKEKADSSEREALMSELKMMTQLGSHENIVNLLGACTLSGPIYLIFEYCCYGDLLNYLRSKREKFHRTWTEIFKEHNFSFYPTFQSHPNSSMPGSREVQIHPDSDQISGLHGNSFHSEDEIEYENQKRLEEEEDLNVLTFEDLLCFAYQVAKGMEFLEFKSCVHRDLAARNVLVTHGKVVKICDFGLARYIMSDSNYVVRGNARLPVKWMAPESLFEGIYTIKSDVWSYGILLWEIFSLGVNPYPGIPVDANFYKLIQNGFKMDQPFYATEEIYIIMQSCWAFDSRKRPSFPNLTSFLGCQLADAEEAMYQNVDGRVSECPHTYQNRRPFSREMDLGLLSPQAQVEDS

[5] = target: BTK(h) (human, UniProt Q06187 1-659)
Sequence of BTK(h) (Q06187 whole entry): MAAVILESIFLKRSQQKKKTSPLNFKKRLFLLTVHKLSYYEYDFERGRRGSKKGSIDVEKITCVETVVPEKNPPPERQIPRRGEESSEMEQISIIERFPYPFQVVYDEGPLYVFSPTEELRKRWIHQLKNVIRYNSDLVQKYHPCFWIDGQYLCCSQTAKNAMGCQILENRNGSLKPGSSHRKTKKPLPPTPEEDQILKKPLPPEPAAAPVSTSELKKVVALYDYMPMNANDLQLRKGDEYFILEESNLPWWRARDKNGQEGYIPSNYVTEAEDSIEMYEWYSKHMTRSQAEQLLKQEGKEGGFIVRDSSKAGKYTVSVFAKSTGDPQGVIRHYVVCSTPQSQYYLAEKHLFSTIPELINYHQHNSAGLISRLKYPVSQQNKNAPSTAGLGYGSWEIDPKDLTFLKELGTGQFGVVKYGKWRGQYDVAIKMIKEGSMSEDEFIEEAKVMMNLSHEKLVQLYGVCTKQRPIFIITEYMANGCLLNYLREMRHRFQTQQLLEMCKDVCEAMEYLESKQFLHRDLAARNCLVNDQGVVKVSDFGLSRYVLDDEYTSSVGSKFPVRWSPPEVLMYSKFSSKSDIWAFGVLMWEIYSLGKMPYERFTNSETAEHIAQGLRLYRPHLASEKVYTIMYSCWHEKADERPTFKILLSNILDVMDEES

[6] = target: T3, PKCµ(h) (human, UniProt Q15139 1-912)
T3 sequence (looked up): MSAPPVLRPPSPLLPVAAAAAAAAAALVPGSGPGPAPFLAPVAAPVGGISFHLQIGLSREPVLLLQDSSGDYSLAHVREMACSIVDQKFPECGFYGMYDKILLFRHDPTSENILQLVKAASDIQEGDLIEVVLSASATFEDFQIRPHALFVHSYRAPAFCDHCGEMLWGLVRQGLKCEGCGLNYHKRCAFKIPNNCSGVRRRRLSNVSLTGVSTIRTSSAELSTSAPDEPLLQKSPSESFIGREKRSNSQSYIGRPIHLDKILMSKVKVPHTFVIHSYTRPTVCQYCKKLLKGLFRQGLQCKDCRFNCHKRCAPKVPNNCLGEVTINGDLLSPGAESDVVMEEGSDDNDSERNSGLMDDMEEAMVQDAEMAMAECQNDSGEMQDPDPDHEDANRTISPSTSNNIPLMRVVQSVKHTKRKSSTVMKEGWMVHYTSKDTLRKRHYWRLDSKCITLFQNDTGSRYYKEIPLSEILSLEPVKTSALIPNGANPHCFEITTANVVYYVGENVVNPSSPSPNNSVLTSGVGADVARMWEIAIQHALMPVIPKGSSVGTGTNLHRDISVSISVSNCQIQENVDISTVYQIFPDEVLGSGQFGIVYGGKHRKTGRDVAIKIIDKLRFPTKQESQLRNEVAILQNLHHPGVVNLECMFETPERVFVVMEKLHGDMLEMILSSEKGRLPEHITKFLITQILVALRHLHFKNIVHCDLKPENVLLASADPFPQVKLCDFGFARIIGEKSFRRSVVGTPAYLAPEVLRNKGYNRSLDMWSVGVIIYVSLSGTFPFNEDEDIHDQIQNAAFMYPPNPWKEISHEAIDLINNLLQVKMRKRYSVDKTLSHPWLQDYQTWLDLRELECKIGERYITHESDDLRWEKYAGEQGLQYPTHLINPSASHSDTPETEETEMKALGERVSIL

[7] = target: IR(h) (human, UniProt P06213 1005-1310, limits assumed)
Sequence of IR(h) (P06213 1005-1310 limits assumed): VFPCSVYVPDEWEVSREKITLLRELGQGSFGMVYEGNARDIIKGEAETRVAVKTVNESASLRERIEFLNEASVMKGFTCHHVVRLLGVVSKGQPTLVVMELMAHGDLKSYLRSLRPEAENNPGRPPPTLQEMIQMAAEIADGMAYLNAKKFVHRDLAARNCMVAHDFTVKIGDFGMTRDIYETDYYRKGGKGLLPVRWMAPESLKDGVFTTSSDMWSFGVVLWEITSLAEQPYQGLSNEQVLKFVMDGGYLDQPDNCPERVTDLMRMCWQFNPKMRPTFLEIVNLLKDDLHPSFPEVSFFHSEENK

[8] = target: CK1γ3(h) (human, UniProt Q9Y6M4 1-447)
Sequence of CK1γ3(h) (Q9Y6M4 whole entry): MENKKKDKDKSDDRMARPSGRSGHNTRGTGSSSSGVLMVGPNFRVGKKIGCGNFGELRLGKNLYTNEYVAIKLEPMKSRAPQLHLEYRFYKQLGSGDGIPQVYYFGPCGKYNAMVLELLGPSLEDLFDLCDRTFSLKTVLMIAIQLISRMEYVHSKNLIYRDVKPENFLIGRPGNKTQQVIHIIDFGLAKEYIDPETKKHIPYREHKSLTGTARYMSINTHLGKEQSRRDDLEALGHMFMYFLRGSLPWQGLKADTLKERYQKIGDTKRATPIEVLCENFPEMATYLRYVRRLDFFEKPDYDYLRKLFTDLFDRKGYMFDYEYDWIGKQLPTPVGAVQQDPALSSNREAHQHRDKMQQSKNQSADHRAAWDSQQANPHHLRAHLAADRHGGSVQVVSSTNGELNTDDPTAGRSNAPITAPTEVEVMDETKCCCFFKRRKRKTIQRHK

[9] = target: JNK1α1(h) (human, UniProt P45983-2 1-384)
[10] = target: FGFR4(h) (human, UniProt P22455 460-802, limits assumed)
Sequence of FGFR4(h) (P22455 460-802 limits assumed): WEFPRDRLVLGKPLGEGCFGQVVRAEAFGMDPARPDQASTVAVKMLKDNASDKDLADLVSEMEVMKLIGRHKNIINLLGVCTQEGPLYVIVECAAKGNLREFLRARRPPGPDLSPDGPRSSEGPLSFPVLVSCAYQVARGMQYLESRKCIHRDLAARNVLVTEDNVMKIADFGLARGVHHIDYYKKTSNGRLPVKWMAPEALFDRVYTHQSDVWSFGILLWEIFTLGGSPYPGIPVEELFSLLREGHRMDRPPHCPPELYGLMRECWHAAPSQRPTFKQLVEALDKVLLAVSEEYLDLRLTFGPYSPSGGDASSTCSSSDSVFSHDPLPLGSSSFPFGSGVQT

[11] = target: WNK3(h) (human, UniProt Q9BYP7 1-434, limits assumed)
Sequence of WNK3(h) (Q9BYP7 1-434 limits assumed): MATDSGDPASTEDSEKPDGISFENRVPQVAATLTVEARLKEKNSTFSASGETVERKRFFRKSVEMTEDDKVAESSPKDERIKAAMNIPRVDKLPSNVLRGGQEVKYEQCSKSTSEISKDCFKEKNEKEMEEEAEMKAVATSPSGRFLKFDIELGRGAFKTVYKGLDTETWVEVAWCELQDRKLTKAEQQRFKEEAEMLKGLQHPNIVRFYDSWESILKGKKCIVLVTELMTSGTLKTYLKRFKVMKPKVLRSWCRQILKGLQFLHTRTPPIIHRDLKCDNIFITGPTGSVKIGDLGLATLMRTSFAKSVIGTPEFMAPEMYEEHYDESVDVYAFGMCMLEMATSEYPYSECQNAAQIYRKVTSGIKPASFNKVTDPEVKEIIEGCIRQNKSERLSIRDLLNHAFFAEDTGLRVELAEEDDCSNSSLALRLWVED

[12] = target: MINK(h) (human, UniProt Q8N4C8 1-320, limits assumed)
Sequence of MINK(h) (Q8N4C8 1-320 limits assumed): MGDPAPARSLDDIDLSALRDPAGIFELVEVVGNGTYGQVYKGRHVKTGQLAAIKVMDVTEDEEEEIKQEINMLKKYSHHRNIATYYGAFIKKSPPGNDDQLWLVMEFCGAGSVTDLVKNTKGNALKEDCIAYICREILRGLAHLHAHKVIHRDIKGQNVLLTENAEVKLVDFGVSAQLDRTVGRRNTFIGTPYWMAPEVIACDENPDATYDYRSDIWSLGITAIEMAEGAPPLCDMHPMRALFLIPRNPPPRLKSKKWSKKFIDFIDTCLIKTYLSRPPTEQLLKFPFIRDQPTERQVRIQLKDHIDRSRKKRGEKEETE

[13] = target: SAPK2b(h) (human, UniProt Q15759 1-364)
Sequence of SAPK2b(h) (Q15759 whole entry): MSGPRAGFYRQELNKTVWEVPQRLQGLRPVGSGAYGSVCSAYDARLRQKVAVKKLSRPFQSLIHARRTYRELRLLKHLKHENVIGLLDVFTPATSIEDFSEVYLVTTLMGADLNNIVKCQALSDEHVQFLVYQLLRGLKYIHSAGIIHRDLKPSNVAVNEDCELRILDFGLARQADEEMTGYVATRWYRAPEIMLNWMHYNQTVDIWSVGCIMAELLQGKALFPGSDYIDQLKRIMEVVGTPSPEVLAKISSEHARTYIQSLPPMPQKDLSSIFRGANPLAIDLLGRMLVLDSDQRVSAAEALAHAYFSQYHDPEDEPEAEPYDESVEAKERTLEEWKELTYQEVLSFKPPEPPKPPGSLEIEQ

[14] = target: PAK6(h) (human, UniProt Q9NQU5 1-681, limits assumed)
Sequence of PAK6(h) (Q9NQU5 whole entry): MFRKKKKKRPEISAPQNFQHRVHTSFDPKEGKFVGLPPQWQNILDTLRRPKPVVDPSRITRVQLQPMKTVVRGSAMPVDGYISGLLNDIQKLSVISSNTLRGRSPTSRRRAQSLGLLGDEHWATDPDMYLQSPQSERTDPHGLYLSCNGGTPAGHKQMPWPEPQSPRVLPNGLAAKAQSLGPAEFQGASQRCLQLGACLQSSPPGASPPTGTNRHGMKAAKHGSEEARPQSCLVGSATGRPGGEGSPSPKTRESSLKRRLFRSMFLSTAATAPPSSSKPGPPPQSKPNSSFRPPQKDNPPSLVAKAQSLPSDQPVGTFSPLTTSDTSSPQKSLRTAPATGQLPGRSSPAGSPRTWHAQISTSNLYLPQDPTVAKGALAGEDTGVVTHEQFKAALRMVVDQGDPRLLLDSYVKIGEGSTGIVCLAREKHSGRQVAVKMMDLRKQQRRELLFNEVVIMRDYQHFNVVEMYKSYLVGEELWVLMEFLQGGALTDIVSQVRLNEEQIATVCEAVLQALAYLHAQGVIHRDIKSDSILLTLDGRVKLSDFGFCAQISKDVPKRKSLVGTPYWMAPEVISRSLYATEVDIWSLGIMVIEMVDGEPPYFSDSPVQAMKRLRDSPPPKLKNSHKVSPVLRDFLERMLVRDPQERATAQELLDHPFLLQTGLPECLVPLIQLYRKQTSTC

[15] = target: Met(Y1248D)(h) (human, UniProt P08581-2 974-1408, limits assumed)
[16] = target: CSK(h) (human, UniProt P41240 1-450)
Sequence of CSK(h) (P41240 whole entry): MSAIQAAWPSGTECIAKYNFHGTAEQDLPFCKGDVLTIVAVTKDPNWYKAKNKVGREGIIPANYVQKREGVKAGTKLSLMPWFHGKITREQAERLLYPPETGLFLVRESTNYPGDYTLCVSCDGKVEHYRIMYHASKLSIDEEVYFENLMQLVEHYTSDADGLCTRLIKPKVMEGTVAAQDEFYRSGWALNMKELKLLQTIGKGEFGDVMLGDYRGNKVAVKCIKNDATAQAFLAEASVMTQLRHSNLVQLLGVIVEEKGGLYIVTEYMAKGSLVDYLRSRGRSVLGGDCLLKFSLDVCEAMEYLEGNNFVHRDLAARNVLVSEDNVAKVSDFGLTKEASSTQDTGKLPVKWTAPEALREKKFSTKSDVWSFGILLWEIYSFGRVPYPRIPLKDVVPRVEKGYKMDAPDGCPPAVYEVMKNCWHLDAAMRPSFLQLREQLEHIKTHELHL

[17] = target: RIPK2(h) (human, UniProt O43353 1-299, limits assumed)
Sequence of RIPK2(h) (O43353 1-299 limits assumed): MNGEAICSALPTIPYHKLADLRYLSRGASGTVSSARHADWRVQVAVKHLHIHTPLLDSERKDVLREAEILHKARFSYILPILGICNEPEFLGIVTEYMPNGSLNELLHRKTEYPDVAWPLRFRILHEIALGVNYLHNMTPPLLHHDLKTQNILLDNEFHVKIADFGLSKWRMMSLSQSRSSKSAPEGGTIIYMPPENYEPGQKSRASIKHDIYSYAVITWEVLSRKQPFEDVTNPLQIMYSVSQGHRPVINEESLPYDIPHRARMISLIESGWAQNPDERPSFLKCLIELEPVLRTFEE

[18] = target: Met(Y1248H)(h) (human, UniProt P08581-2 974-1408, limits assumed)

Row | Binder | % activity, 100 µM [1] | % activity, 100 µM [2] | % activity, 100 µM [3] | % activity, 100 µM [4] | % activity, 100 µM [5] | % activity, 100 µM [6] | % activity, 100 µM [7] | % activity, 100 µM [8] | % activity, 100 µM [9] | % activity, 100 µM [10] | % activity, 100 µM [11] | % activity, 100 µM [12] | % activity, 100 µM [13] | % activity, 100 µM [14] | % activity, 100 µM [15] | % activity, 100 µM [16] | % activity, 100 µM [17] | % activity, 100 µM [18]
1 | KAFAKLAARLYRKALARQLGVAA [MMI-0400] | 61% | 129% | 192% | 71% | 94% | 14% | 85% | 115% | 98% | 19% | 74% | 52% | 82% | 100% | 31% | 16% | 98% | 63%
2 | FAKLAARLYRKALARQLGVAA [MMI-0300] | 78% | 127% | 89% | 80% | 102% | 22% | 96% | 125% | 97% | 28% | 77% | 48% | 81% | 104% | 102% | 49% | 97% | 117%
